Test results as given in patent publication US20240092876A1 (priority 2020, published 2024).
Several values for one entry are separate records, joined by “and”; a condition that tells them apart may be missing. Equal entries are not always repeated. Where two headings read alike, the source gives them in different places.

What was measured:
[1] = molecular target: N2 A/South Australia/34/2019 (245Gly+) (Influenza A virus A/South Australia/34/2019)
[2] = molecular target: N2 neuraminidase from A/Washington/01/2007 (Influenza A virus A/Washington/01/2007); assay: flow cytometry on NA-expressing cells
[3] = molecular target: B/Malaysia/2506/2004(Victoria) (influenza B virus); assay: flow cytometry on NA-expressing cells
[4] = molecular target: N1 neuraminidase from A/California/07/2009 (Influenza A virus A/California/07/2009 (H1N1)); assay: flow cytometry on NA-expressing cells
[5] = molecular target: B/Lee/10/1940(Ancestral) (influenza B virus); assay: flow cytometry on NA-expressing cells
[6] = molecular target: N9 neuraminidase from A/Anhui/1/2013 (Influenza A virus A/Anhui/1/2013 (H7N9)); assay: flow cytometry on NA-expressing cells
[7] = molecular target: N6_A_Swine_Ontario_01911_1_99 (influenza A virus); assay: flow cytometry on NA-expressing cells
[8] = molecular target: B/Yamanashi/166/1998(Yamagata) (influenza B virus); assay: flow cytometry on NA-expressing cells
[9] = molecular target: N7_A_Netherlands_078_03 (influenza A virus); assay: flow cytometry on NA-expressing cells
[10] = molecular target: N8_A_harbor_seal_New_hampshire_179629_2011 (influenza A virus); assay: flow cytometry on NA-expressing cells
[11] = molecular target: N3_A_Canada_rv504_2004 (influenza A virus); assay: flow cytometry on NA-expressing cells
[12] = molecular target: N2_NA_A_South_Australia_34_2019 (influenza A virus); assay: flow cytometry on NA-expressing cells
[13] = molecular target: N1_NA_A_swine_Hebei_0116_2017 (influenza A virus); assay: flow cytometry on NA-expressing cells
[14] = molecular target: N1 neuraminidase from A/Swine/Jiangsu/J004/2018 (Influenza A virus A/Swine/Jiangsu/J004/2018 (H1N1)); assay: flow cytometry on NA-expressing cells
[15] = molecular target: N1_A_Stockholm_18_2007 (influenza A virus); assay: flow cytometry on NA-expressing cells
[16] = molecular target: N2_A_Leningrad_134_17_57 (influenza A virus); assay: flow cytometry on NA-expressing cells
[17] = molecular target: N1 neuraminidase from A/Swine/Jiangsu/J004/2018 (Influenza A virus A/Swine/Jiangsu/J004/2018 (H1N1))
[18] = molecular target: N1 neuraminidase from A/Swine/Jiangsu/J004/2018 (Influenza A virus A/Swine/Jiangsu/J004/2018 (H1N1)); remark: listed apart in the source
[19] = molecular target: N2 A/South Australia/34/2019 (245Gly+) (Influenza A virus A/South Australia/34/2019); remark: listed apart in the source
[20] = test system: B/Brisbane/60/2008 (Victoria); parameters: species or system influenza B virus; conditions: in vivo, po, 10 mg/kg
H3N2 A/Hong Kong/8/68 = test system: H3N2 A/Hong Kong/8/68; parameters: species or system influenza A virus; conditions: in vivo, po, 10 mg/kg
[21] = test system: B/Victoria/504/2000 (Yamagata); parameters: species or system influenza B virus; conditions: in vivo, po, 10 mg/kg
H1N1 A/Puerto Rico/8/34 = test system: H1N1 A/Puerto Rico/8/34; parameters: species or system influenza A virus; conditions: in vivo, po, 10 mg/kg

With FNI3 (antibody) the Alexa 647-A+ (percent of cells in the positive gate) [1] was 49.1% and 48.4%, the Kd (N2) was < 1 pM and the koff (N2) was < 1e-07 s⁻¹. It also gave a kon (N2) of 11500 M⁻¹ s⁻¹, an MFI normalized vs wt [2] of 1 and an MFI normalized vs wt [3] of 1. For the same molecule, the MFI normalized vs wt [4] was 1, the MFI normalized vs wt [5] was 1 and the MFI normalized vs wt [6] was 1. For the same molecule, the MFI normalized vs wt [7] was 1, the MFI normalized vs wt [8] was 1 and the MFI normalized vs wt [9] was 1. The MFI normalized vs wt [10] was 1, the MFI normalized vs wt [11] was 1 and the MFI normalized vs wt [12] was 1. For the same molecule, the MFI normalized vs wt [13] was 1, the MFI normalized vs wt [14] was 1 and the MFI normalized vs wt [15] was 1. For the same molecule, the MFI normalized vs wt [16] was 1, the Alexa 647-A+ (percent of cells in the positive gate) [17] was 83.9% and 85.2% and the Alexa 647-A+ (percent of cells in the positive gate) [18] was 83.7% and 79.6%. The Alexa 647-A+ (percent of cells in the positive gate) [19] was 59.2% and 54%.

With FNI9 (antibody) the Alexa 647-A+ (percent of cells in the positive gate) [1] was 68.8% and 57%, the Kd (N2) was < 1 pM and the Alexa 647-A+ (percent of cells in the positive gate) [17] was 84% and 83.5%. For the same molecule, the Alexa 647-A+ (percent of cells in the positive gate) [18] was 82.1% and 78% and the Alexa 647-A+ (percent of cells in the positive gate) [19] was 66.1% and 71.3%.

For CCOC(=O)C1=C[C@@H](OC(CC)CC)[C@H](NC(C)=O)[C@@H](N)C1 [OSE, oseltamivir], the “reduction in viral titres in comparison to the vehicle” value (shortened to “reduction in viral titres”) [20] was “exception”, the “reduction in viral titres” value (H3N2 A/Hong Kong/8/68) was 1 log and the “reduction in viral titres” value [21] was 1 log. The “reduction in viral titres” value (H1N1 A/Puerto Rico/8/34) was 1 log.

In the case of 1G01 (antibody), the Kd (N2) is reported as < 1 pM, the koff (N2) is reported as < 1e-07 s⁻¹ and the kon (N2) is reported as 40200 M⁻¹ s⁻¹.
